Results as given in PMC11408855, “The structure of the SufS–SufE complex reveals interactions driving protected persulfide transfer in iron-sulfur cluster biogenesis” (The Journal of Biological Chemistry, 2024).
Positions count from the first letter of the chain named. In names and notes the source's numbering stands.

What was measured:
Assay in all cases: fluorescence polarisation; 100 nM BODIPY-FL-labeled EcSufE titrated with EcSufS; 50 mM Mops pH 8.0, 150 mM NaCl, 0.1 mg/ml bovine serum albumin, 25 °C, 30 min; absence of cysteine; apparent KD
Settings in all cases: both partners purified
[1] = molecular target: T1, D346A EcSufS, C-terminal his-tagged (Escherichia coli, UniProt P77444 1-406, D346A, PLP (pyridoxal 5'-phosphate) cofactor)
T1 construct: EcSufS of Escherichia coli, UniProt P77444, with D346A; also called D346A SufS; source: E. coli BL21(DE3)Δsuf, pET44, autoinduction, purified (Ni2+ HisTrap HP); not shown: His tag, C-terminal, kept
T1 sequence: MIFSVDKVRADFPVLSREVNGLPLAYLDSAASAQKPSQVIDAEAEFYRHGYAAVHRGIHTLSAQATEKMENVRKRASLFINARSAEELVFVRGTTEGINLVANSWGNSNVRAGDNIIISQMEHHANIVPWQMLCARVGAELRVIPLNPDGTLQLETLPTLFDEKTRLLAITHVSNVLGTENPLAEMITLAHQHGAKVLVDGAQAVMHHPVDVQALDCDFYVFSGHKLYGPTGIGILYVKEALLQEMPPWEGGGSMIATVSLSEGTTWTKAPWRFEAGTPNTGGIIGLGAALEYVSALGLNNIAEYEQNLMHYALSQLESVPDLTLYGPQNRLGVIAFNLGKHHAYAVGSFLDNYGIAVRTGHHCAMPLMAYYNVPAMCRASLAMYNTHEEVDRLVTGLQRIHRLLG

[2] = molecular target: T2, Y354A EcSufS, C-terminal his-tagged (Escherichia coli, UniProt P77444 1-406, Y354A, PLP (pyridoxal 5'-phosphate) cofactor)
T2 construct: EcSufS of Escherichia coli, UniProt P77444, with Y354A; also called Y354A SufS; source: E. coli BL21(DE3)Δsuf, pET44, autoinduction, purified (Ni2+ HisTrap HP); not shown: His tag, C-terminal, kept
T2 sequence: T1 sequence with A346D, Y354A

[3] = molecular target: T3, H343A EcSufS, C-terminal his-tagged (Escherichia coli, UniProt P77444 1-406, H343A, PLP (pyridoxal 5'-phosphate) cofactor)
T3 construct: EcSufS of Escherichia coli, UniProt P77444, with H343A; also called H343A SufS; source: E. coli BL21(DE3)Δsuf, pET44, autoinduction, purified (Ni2+ HisTrap HP); not shown: His tag, C-terminal, kept
T3 sequence: T1 sequence with H343A, A346D

[4] = molecular target: T4, N353A EcSufS, C-terminal his-tagged (Escherichia coli, UniProt P77444 1-406, N353A, PLP (pyridoxal 5'-phosphate) cofactor)
T4 construct: EcSufS of Escherichia coli, UniProt P77444, with N353A; also called N353A SufS; source: E. coli BL21(DE3)Δsuf, pET44, autoinduction, purified (Ni2+ HisTrap HP); not shown: His tag, C-terminal, kept
T4 sequence: T1 sequence with A346D, N353A

Kd [1]: > 40 µM
Kd [2]: > 20 µM
Kd [3]: > 20 µM
Kd [4]: 0.06 µM
B1: BODIPY-FL-labeled C51A/E107C EcSufE (natural protein, Escherichia coli)
chain: MALLPDKEKLLRNFLRCANWEEKYLYIIELGQRLPELRDEDRSPQNSIQGAQSQVWIVMRQNAQGIIELQGDSDAAIVKGLIAVVFILYDQMTPQDIVNFDVRPWFCKMALTQHLTPSRSQGLEAMIRAIRAKAAALS
modifications: BODIPY-FL maleimide label (labeling efficiency 60 to 80%)
notes: EcSufE, transpersulfurase SufE of Escherichia coli, UniProt P76194, with C51A and E107C; also called "WT" EcSufE (double mutant background); C51A/E107C EcSufE control
